Tests used:
Experiment in all cases: specificity ELISA as in Example 2, receptor coated
[1] = molecular target: T1, Soluble DcR1 protein (R&D Systems Catalog #630-TR-100/CF) (UniProt O14798 26-221, limits assumed)
T1 construct: also called decoy receptor DcR1; TRAILR3
T1 sequence (looked up): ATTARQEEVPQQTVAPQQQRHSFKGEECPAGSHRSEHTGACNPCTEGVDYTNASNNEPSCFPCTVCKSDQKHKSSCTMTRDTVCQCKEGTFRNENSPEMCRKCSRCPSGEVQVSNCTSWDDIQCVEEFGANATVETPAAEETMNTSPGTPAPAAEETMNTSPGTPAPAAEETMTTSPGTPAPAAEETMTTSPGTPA
Method: (§1) Soluble DR5, DR4, DcR1, or DcR2 protein (R&D Systems Catalog #631-T2-100/CF, 347-DR-100/CF, 630-TR-100/CF, 633-TR-100 respectively) were coated on an ELISA plate at 2 μg/mL in 100 mM NaHCO₃ pH 9.5 overnight at 4° C. A solution of 2% BSA in PBS was used for the blocking and antibody incubation steps. The plate was blocked for 1 hour at room temperature, then incubated with mouse anti-human DR5 mAb (Acris Antibodies Catalog #AM31206AF-N) for 1 hour at room temperature. anti-DR5 mAb was 3-fold serially diluted to concentrations ranging from 1 to 200 μg/mL. After washing 3 times with PBS plus 0.05% Tween-20, the plate was incubated with rat anti-mouse kappa-HRP (Southern Biotech Catalog #1180-05) for 1 hour at room temperature, protected from light. After washing 3 times with PBS plus 0.05% Tween-20, the plate was incubated with TMB substrate (BD Biosciences Catalog #555214) for 20 minutes at room temperature. The reaction was stopped with 1M H₂SO₄ and absorbance at 450 nm was determined using a microtiter plate reader.
(§2) For Human Anti-DR5 mAb ELISAs, 1:2000 Mouse Anti-Human Lambda-HRP (Southern Biotech Catalog #9180-05) or 1:6000 Mouse Anti-Human Kappa-HRP (Southern Biotech Catalog #9230-05) was used for detection.
(§3) An IgG version and pentameric IgM-J chain version of anti-DR5 mAb #2 were tested for binding specificity by ELISA as described in Example 2. As shown in FIG. 8A (IgG) and FIG. 8B (IgM), the antibodies bound to human DR5 but not human DR4 or either of the decoy receptors DcR1 or DcR2.

[2] = molecular target: T2, Soluble DcR2 protein (R&D Systems Catalog #633-TR-100) (UniProt Q9UBN6 56-211, limits assumed)
T2 construct: also called decoy receptor DcR2; TRAILR4
T2 sequence (looked up): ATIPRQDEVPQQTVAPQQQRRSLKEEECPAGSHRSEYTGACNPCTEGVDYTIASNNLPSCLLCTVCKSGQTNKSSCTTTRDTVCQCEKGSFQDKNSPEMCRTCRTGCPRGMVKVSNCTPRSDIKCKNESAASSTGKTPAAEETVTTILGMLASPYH
Method: as §1, §2, §3

[3] = molecular target: T3, Soluble DR4 protein (R&D Systems Catalog #347-DR-100/CF) (human, UniProt O00220 24-239, limits assumed)
T3 construct: also called human DR4; TRAILR1
T3 sequence (looked up): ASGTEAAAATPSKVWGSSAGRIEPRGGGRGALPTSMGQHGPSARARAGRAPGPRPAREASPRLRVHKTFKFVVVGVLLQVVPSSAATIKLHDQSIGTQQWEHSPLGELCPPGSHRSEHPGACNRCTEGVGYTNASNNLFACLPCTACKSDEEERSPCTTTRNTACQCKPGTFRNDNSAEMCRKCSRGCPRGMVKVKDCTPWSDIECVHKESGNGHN
Method: as §1, §2, §3

Measured: binding result

B1: Anti-DR5 mAb #2, pentameric IgM-J chain version (antibody, V domains shown)
VH: QVQLQESGPGLVKPSQTLSLTCTVSGGSISSGDYFWSWIRQLPGKGLECIGHIHNSGTTYYNPSLKSRVTISVDTSKKQFSLRLSSVTAADTAVYYCARDRGGDYYYGMDVWGQGTTVTVSS
VL: EIVLTQSPGTLSLSPGERATLSCRASQGISRSYLAWYQQKPGQAPSLLIYGASSRATGIPDRFSGSGSGTDFTLTISRLEPEDFAVYYCQQFGSSPWTFGQGTKVEIK
modifications: Assembled as a pentamer of bivalent IgM binding units with one J chain (10 VH/VL pairs); the letters do not carry this.
notes: VH and VL were inserted into proprietary IgM vectors; also called DR5 MAb IgM #2; IgM Anti-DR5 mAb #2; not shown: IgM heavy-chain constant region, kappa light-chain constant region and J chain of the construct
no binding: all assays above

Source: patent publication US20180009897A1 (IGM BIOSCIENCES, published 2018)
